Paper PMC10693595 (2023)

B1: human VZV neutralizing mAb 93k [modified: Cy5-conjugated] [human] / VZV glycoprotein B, wild type [varicella-zoster virus (VZV)] (parent complex)
chain 1: QVQLVQSGAEVKKPGSSVKVSCKASGGTFSNFAISWVRQAPGQGLEWMGRIMPLFVTSTYAQKFQGRVTISADASTSTAYMELSSLRSDDTAMYYCARDITAPGAAPTPLNFYGMDVWGQGTTVTVSS
chain 2: DIQMTQSPSTLSASVGDRVTITCRASQTISTWLAWYQQTPRKAPKLMIYKASILENGVPSRFSGSGSGTEFTLTISSLQPEDFATYYCQQYKSYPWTFGQGTKVEI
chain 3: VSPSSFYESLQVEPTQSEDITRSAHLGDGDEIREAIHKSQDAETKPTFYVCPPPTGSTIVRLEPTRTCPDYHLGKNFTEGIAVVYKENIAAYKFKATVYYKDVIVSTAWAGSSYTQITNRYADRVPIPVSEITDTIDKFGKCSSKATYVRNNHKVEAFNEDKNPQDMPLIASKYNSVGSKAWHTTNDTYMVAGTPGTYRTGTSVNCIIEEVEARSIFPYDSFGLSTGDIIYMSPFFGLRDGAYREHSNYAMDRFHQFEGYRQRDLDTRALLEPAARNFLVTPHLTVGWNWKPKRTEVCSLVKWREVEDVVRDEYAHNFRFTMKTLSTTFISETNEFNLNQIHLSQCVKEEARAIINRIYTTRYNSSHVRTGDIQTYLARGGFVVVFQPLLSNSLARLYLQELVRENTNHSPQKHPTRNTRSRRSVPVELRANRTITTTSSVEFAMLQFTYDHIQEHVNEMLARISSSWCQLQNRERALWSGLFPINPSALASTILDQRVKARILGDVISVSNCPELGSDTRIILQNSMRVSGSTTRCYSRPLISIVSLNGSGTVEGQLGTDNELIMSRDLLEPCVANHKRYFLFGHHYVYYEDYRYVREIAVHDVGMISTYVDLNLTLLKDREFMPLQVYTRDELRDTGLLDYSEIQRRNQMHSLRFYDIDKVVQYDSGTAIMQGMAQFFQGLGTAGQAVGHVVLGATGALLSTVHGFTTFLSNPFGALAVGLLVLAGLVAAFFAYRYVLKLKTSPMKALYPLTTKGLKQLPEGMDPFAEKPNATDTPIEEIGDSQNTEPSVNSGFDPDKFREAQEMIKYMTLVSAAERQESKARKKNKTSALLTSRLTGLALRNRRGYSRVRTENVTGV

Variants of: B1
Assay: flow cytometry on cells; CHO-DSP1 cells transfected, permeabilized, immunostained with Cy5-conjugated mAb 93k; n = 2; parent: 100; read off a plot

chain 3 H456A and chain 3 V457A are the same in percent of parent: ~98 % WT for the first, ~98 % WT for the second.

For chain 3 E455A, the percent of parent was ~110 % WT.

Variants of: B1
Assay: as above
Remark: another data set of the same source

chain 3 H456A and chain 3 V457A are the same in screen value: ~120 % WT for the first, ~120 % WT for the second.

For chain 3 E455A, the screen value was ~120 % WT.

Variants of: B1
Assay: flow cytometry on cells; CHO-DSP1 cells transfected, permeabilized, immunostained with Cy5-conjugated mAb 93k; n = 3; parent: 100; read off a plot

Going from chain 3 H456P to chain 3 E455P, the screen value falls from ~120 % WT to ~110 % WT.

Work on chain 3 V457P yielded a screen value of ~48 % WT.

Variants of: B1
Assay: as above
Remark: another data set of the same source

Going from chain 3 H456P to chain 3 E455P, the percent of parent falls from ~95 % WT to ~70 % WT.

Work on chain 3 V457P yielded a percent of parent of ~18 % WT.
